{"source": "paper PMC3430610", "about": "“Brassica napus PHR1 Gene Encoding a MYB-Like Protein Functions in Response to Phosphate Starvation”", "binders": {"B1": {"name": "BnPT2 promoter probe (BnPT2p1/p2) (dsDNA)", "DNA 1": "AATTGGAGGGGAATATACCGAAACATTGTTGTATATTCATGTAAG", "DNA 2": "CCGGCTTACATGAATATACAACAATGTTTCGGTATATTCCCCTCC"}}, "molecular_target": "MBP-BnPHR1 (Brassica napus, UniProt W5QL02 1-417)", "sequence (W5QL02 entry or part of it)": "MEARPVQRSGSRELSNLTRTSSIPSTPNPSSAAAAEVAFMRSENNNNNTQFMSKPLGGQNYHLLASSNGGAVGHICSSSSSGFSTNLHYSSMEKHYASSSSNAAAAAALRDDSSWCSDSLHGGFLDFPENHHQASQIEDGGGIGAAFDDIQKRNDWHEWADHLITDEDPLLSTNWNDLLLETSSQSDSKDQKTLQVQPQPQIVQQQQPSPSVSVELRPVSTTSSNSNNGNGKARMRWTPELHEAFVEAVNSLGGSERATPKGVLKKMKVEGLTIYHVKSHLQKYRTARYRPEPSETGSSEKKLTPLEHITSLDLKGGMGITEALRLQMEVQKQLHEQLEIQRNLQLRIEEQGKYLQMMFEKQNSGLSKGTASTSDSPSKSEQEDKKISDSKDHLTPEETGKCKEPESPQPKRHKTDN", "assay": "EMSA; EMSA: 750 mM KCl, 0.5 mM DTT, 0.5 mM EDTA, 50 mM Tris pH 7.4 (so in the source), room temperature, 20 min; native PAGE, SYBR Green then SYPRO Ruby stain", "settings": "protein: recombinant; tags: N-terminal MBP (pMAL-c2); chain copies: 2; label: none (SYBR Green post-stain); 5' overhang 4 nt on both strands (AATT and CCGG), 41 bp duplex"}
{"binder": "B1", "values": [{"measurement": "binding result", "result": "binds"}]}
